Data from the supplement of paper PMC10567573.

B1: SPATS1 (parent)
chain: YPEQSKGFHKAGSMLPPVNFSIVP
B2: ZNF263 (parent)
chain: FAHSSNLLRHQRIHTGERPYKCPE

Variants of: B1
Experiment: protein stability index of a GFP-peptide fusion (GPS, HEK-293T) (PSI 1-6); higher = more stable
Conditions: c terminus: a fixed tail appended
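Also: lentivirally expressed fusions sorted by FACS into six bins by GFP to DsRed ratio, PSI derived from sequencing read proportions per bin multiplied by bin number.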

Protein stability index of substitutions, site by site:
I22: V 1.82; Q 2.26; N 2.31; P 2.01; Y 1.75; H 1.75; D 2.47; F 1.97; M 2.04; G 2.52; L 2.34; W 1.24; E 2.33; C 1.76; T 2.53; A 2.22; S 2.48; K 1.65; R 2.52
P24: Q 1.75; L 3.85; C 1.65; S 1.94; I 3.47; E 2.74; A 1.66; F 1.83; D 2.43; M 2.5; K 2.08; T 3.33; Y 2.08; R 1.82; W 3.28; N 1.84; H 1.53; G 2.37; V 1.46
V23: A 2.57; M 1.93; I 2.47; D 1.88; Q 2.26; H 1.43; F 1.59; R 1.9; W 1.87; E 2.42; Y 1.75; K 2.1; C 1.8; G 1.98; N 2.35; L 1.94; T 1.74; S 1.97
S21: G 1.81; W 2.43; K 2.15; N 2.4; E 1.94; I 2.13; L 2.08; T 2.52; Q 1.88; V 2.24; Y 2.6; C 1.79; A 1.8; P 1.96; F 1.6; H 1.49; M 2.06; R 1.8; D 1.87
F20: M 1.97; H 2.19; L 1.97; P 2.66; K 2.19; V 2.88; I 1.73; Y 2.03; R 2.23; W 1.57; Q 2.47; S 2.14; T 2.24; N 2.22

Variants of: B2
Experiment: as above
Conditions: c terminus: a fixed tail appended

Protein stability index, by site and new letter:
H10: F 1.69; A 2.38; Y 2.51; P 2.82; N 2.38; S 1.95; T 2.2; M 1.91; Q 2.37; I 1.81; D 3.13; W 1.8; R 1.8; E 2.77; C 2.76; L 1.94; V 1.79; K 1.73; G 2.44
R12: L 2.44; M 2.52; D 3.3; Y 2.1; G 2.72; I 2.33; E 2.95; F 2.17; H 3.01; K 2.56; W 1.87; S 2.8; P 2.38; C 2.54; Q 3.09; N 2.84; A 2.91; V 2.73; T 2.48
L8: H 2.01; R 2.53; M 2.68; D 3.05; Y 2.78; I 2.71; W 2.64; N 2.8; A 2.37; T 3.04; Q 2.97; S 3.14; V 2.55; F 1.8; K 2.46; E 3.3; G 2.35; P 2.78; C 2.13
S5: G 1.74; N 2.3; V 2.12; H 1.81; D 2.87; M 2.28; Y 2.13; I 2.31; P 2.25; L 1.96; C 2.02; Q 2.15; E 2.75; R 2.44; T 2.7; F 1.94; A 2.04; W 2.24; K 1.91
R9: Y 2.36; S 2.63; H 2.85; E 3.23; F 2.06; V 2.58; T 2.9; M 3.05; K 2.93; N 2.85; Q 2.87; A 2.39; C 2.68; P 3.19; G 2.45; I 2.21; L 2.88; D 2.62
Q11: D 2.98; P 1.79; V 2.14; C 3.7; R 2.2; E 2.56; T 2.28; H 2.5; L 1.69; M 1.84; N 3.13; K 2.03; S 1.98; F 1.48; I 1.31; Y 2.49; G 2.18; A 1.61
A2: C 2.62; N 3.34; W 2.18; S 3.19; I 1.89; L 2.57; F 2.17; E 3.69; T 2.43; K 3.08; Y 2.55; M 2.83; D 3.41; V 3.61; H 1.82; Q 2.73; P 2.67; R 2.82; G 3.17
H3: I 2.34; E 1.98; Y 1.96; T 2.06; N 2.48; M 2.41; G 2.12; V 1.86; A 2.15; D 1.94; F 1.89; Q 2.03; P 2.5; K 1.86; L 2.61; W 1.25; R 2.04; C 2.07; S 2.22
S4: N 2.7; F 2.55; T 2.13; C 2.11; I 2.09; Q 2.06; M 1.86; D 2.94; H 1.91; R 2.07; V 2.24; E 3.05; W 2.62; L 2.48; P 2.62; K 2.28; A 2.15; Y 2.45; G 2.45
L7: S 2.52; H 2.94; Y 1.6; Q 3.21; M 2.39; G 2.43; F 1.84; D 2.75; C 2.08; V 2.68; W 2.48; N 2.93; I 2.2; K 2.54; A 2.83; P 2.02; E 3.14; T 2.45; R 2.58
N6: P 1.98; S 2.27; L 1.58; Y 1.63; W 3.04; C 1.4; I 1.56; R 1.99; H 2; Q 2.49; V 1.91; G 2.21; E 2.62; F 1.73; K 2.17; D 2.41; A 1.77; M 2.15; T 2.3
F1: D 3.9; I 3.77; V 3.01; H 4.22; Y 2.51; Q 4.13; S 3.34; P 3.95; L 2.67; M 3.9; W 3.29; R 3.46; G 4.33; A 3.8; C 2.36; T 3.67; E 3.92; N 3.9; K 3.54
I13: K 2.68; Y 2.43; E 3.23; A 2.85; W 1.99; C 2.46; R 2.39; H 2.77; V 2.13; Q 2.83; F 2.14; S 2.68; G 2.91; L 2.07; T 2.82; P 3.22; M 2.12; D 3.09; N 2.99
